Test results reported in PMC9802395 (2022).
Where two headings read alike, the source gives them in different places.

B2: biotinylated EIIIB (protein fragment of fibronectin splice variant EIIIB) (domain or fragment)
chain: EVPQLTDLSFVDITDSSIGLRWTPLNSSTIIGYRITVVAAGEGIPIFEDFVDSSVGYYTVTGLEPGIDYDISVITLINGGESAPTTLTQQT
modifications: biotin (ChromaLink NHS-biotin reagent)

Assays:
Assay in all cases: BLI
[1] = biological target: B2
[2] = biological target: B2; remark: listed apart in the source
[3] = biological target: B2; remark: listed apart in the source
NJB2 = biological target: NJB2
LMJ1.2G = biological target: LMJ1.2G
LMJ2.5J = biological target: LMJ2.5J
LMJ2.6A = biological target: LMJ2.6A
LMJ2.5H = biological target: LMJ2.5H
LMJ2.5G = biological target: LMJ2.5G
LMJ2.4C = biological target: LMJ2.4C
LMJ2.5C = biological target: LMJ2.5C
LMJ1.3J = biological target: LMJ1.3J
[4] = biological target: B2; remark: listed apart in the source

LMJ2.4C, sequence (P02751 1266-1356): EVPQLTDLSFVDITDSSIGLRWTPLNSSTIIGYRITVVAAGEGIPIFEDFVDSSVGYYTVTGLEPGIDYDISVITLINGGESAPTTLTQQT
LMJ1.3J, sequence (P02751 1266-1356): as above
LMJ2.5H, sequence (P02751 1266-1356): as above
LMJ2.5C, sequence (P02751 1266-1356): as above
LMJ2.5G, sequence (P02751 1266-1356): as above
NJB2, sequence (P02751 1266-1356): as above
LMJ2.5J, sequence (P02751 1266-1356): as above
LMJ1.2G, sequence (P02751 1266-1356): as above
LMJ2.6A, sequence (P02751 1266-1356): as above

B1: NJB2-IL2 (NJB2 nanobody fused to murine IL-2) (VHH)
VHH: QVQLVETGGGLVQAGGSLRLSCAASGSTFSHNAGGWYRQAPEKQRELVAGISSDGNINYADSVKDRFTISRDNASNTMYLQMNNLKPEDTAVYVCNIRGSYGNTYYSRWGQGTQVTVSS
[1]
  Kd: 1.1 nM
[2]
  Kd: 0.996 nM
[3]
  koff: 0.000289 s⁻¹

## B2
NJB2
  Kd: 1.82 nM
  koff: 0.00104 s⁻¹
LMJ1.2G
  Kd: 0.973 nM
  koff: 0.000475 s⁻¹
LMJ2.5J
  Kd: 0.0622 nM
  koff: 4.45e-05 s⁻¹
LMJ2.6A
  Kd: 0.344 nM
  koff: 7.47e-05 s⁻¹
LMJ2.5H
  Kd: 0.227 nM
  koff: 0.000136 s⁻¹
LMJ2.5G
  Kd: 0.166 nM
  koff: 9.13e-05 s⁻¹
LMJ2.4C
  Kd: 0.0626 nM
  koff: 4.8e-05 s⁻¹
LMJ2.5C
  Kd: 0.0785 nM
  koff: 3.52e-05 s⁻¹
LMJ1.3J
  Kd: 0.402 nM
  koff: 0.000305 s⁻¹

B3: LMJ1.2C nanobody, biotin-tagged (VHH)
VHH: QVQLVETGGGLVQAGGSLRLSCAASGSTFSHSAGGWYRQAPEKQRELVAGIRSDGNINYADSVKDRFTISRDNASNTMYLQMNNLKPEDTAVYVCNIRGSYGNTYYSRWGQGTQVTVSS
modifications: biotin at the C-terminus via sortase-mediated tagging (nucleophile GGGK-Biotin)
[4]
  koff: 0.00015 s⁻¹

B4: LMJ2.5I-IL2 (LMJ2.5I nanobody fused to murine IL-2) (VHH)
VHH: RVQLVETGGGLVQAGGSLRLSCAVSGSTFSHSAGGWYRQAPEKQRELVAGIRSDGNINYADSVKDRFTISRDNASNTMYLQMNNLKPEDTAVYVCNIRGSYGNTYYSRWGQGAQVTVSS
[2]
  Kd: < 0.001 nM
[3]
  koff: < 1e-07 s⁻¹

B5: LMJ1.2C-IL2 (LMJ1.2C nanobody fused to murine IL-2) (VHH)
VHH: QVQLVETGGGLVQAGGSLRLSCAASGSTFSHSAGGWYRQAPEKQRELVAGIRSDGNINYADSVKDRFTISRDNASNTMYLQMNNLKPEDTAVYVCNIRGSYGNTYYSRWGQGTQVTVSS
[2]
  Kd: 0.0144 nM
[3]
  koff: 5.06e-06 s⁻¹

B6: LMJ2.5I nanobody, biotin-tagged (VHH)
VHH: RVQLVETGGGLVQAGGSLRLSCAVSGSTFSHSAGGWYRQAPEKQRELVAGIRSDGNINYADSVKDRFTISRDNASNTMYLQMNNLKPEDTAVYVCNIRGSYGNTYYSRWGQGAQVTVSS
modifications: biotin at the C-terminus via sortase-mediated tagging (nucleophile GGGK-Biotin)
[4]
  koff: 2.49e-05 s⁻¹

B7: NJB2-IL2-mt (NJB2 fused to murine IL-2 bearing point mutations that abrogate cytokine activity) (VHH)
VHH: QVQLVETGGGLVQAGGSLRLSCAASGSTFSHNAGGWYRQAPEKQRELVAGISSDGNINYADSVKDRFTISRDNASNTMYLQMNNLKPEDTAVYVCNIRGSYGNTYYSRWGQGTQVTVSS
[1]
  Kd: 1.6 nM
